Assay results from patent US20200332015A1 (NAMAB THERAPEUTICS, published 2020).
One block for each binder: values may come before it.

Legend:
[1] = biological target: T1, human CD137 expressed on Jurkat cells (human, UniProt Q07011 24-255); assay: cell-based or functional assay
[2] = biological target: T1, human CD137 expressed on Jurkat cells; assay: cell-based or functional assay; remark: listed apart in the source
[3] = biological target: T1, human CD137 expressed on Jurkat cells; assay: cell-based or functional assay; remark: listed apart in the source
[4] = biological target: T1, human CD137 expressed on Jurkat cells; assay: cell-based or functional assay; remark: listed apart in the source
[5] = biological target: T2, Fc tagged human CD137 (R&D Systems, cat. 838-4B-100) (human, UniProt Q07011 24-186); assay: SPR T200, antigen-Fc captured, molecule as analyte
T2 construct: also called CD137 Fc chimera; human CD137-Fc chimeric protein

[6] = biological target: human PDL1-Fc chimeric protein (human, UniProt Q9NZQ7 19-238, limits assumed); assay: SPR T200, antigen-Fc captured, molecule as analyte
Method in brief: (§1)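 Apparent KD, ka and kd come from a one-to-one Langmuir model. Species Fc proteins were captured on an immobilized anti-Fc surface, and analyte at 0.12-90 nM (three-fold series) was flowed 3 min with 10-min dissociation; surfaces were stripped with 3 M MgCl₂.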

[7] = biological target: T2, Fc tagged human CD137 (R&D Systems, …); assay: SPR T200, antigen-Fc captured, molecule as analyte; remark: listed apart in the source
Method in brief: as §1

[8] = biological target: T3, cynomolgus monkey Fc-tagged CD137 (R&D Systems, cat. 9324-4B-100) (cynomolgus monkey, UniProt A9YYE7 24-186); assay: SPR T200, antigen-Fc captured, molecule as analyte
T3 construct: also called cynomolgus CD137-Fc chimeric protein
T3 sequence (A9YYE7 entry or part of it): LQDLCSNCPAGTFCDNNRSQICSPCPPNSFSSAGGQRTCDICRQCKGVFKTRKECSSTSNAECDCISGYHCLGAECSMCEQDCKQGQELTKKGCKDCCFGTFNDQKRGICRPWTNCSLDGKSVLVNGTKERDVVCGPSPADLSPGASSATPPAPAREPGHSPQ
Method in brief: as §1

[9] = biological target: T4, mouse Fc-tagged mouse CD137 (R&D Systems, cat. 937-4B-050) (mouse, UniProt P20334 24-187); assay: SPR T200, antigen-Fc captured, molecule as analyte
T4 construct: also called mouse CD137-Fc chimeric protein
T4 sequence (looked up): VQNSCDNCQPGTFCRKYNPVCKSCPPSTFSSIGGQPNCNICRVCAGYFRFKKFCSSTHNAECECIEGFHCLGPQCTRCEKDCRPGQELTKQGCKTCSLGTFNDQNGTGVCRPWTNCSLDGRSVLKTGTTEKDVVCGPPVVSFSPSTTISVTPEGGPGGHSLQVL
Method in brief: as §1

[10] = biological target: human PDL1 on cells (antigen-presenting cells and T cells of SEA stimulated human PBMC) (human, UniProt Q9NZQ7 19-290); assay: cell-based or functional assay
[11] = biological target: cynomolgus PDL1-Fc chimeric protein (cynomolgus, UniProt G7PSE7 19-238); assay: SPR T200, antigen-Fc captured, molecule as analyte
Sequence of cynomolgus PDL1-Fc chimeric protein (G7PSE7 entry or part of it mutant): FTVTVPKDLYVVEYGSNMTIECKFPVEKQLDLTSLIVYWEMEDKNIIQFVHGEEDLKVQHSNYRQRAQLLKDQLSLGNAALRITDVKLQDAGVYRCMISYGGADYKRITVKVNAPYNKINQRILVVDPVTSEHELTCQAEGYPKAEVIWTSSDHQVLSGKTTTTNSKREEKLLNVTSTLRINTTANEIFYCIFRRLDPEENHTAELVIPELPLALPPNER
Method in brief: as §1

[12] = biological target: T1, human CD137 expressed on Jurkat cells; assay: flow cytometry on CD137 expressing Jurkat cells
Experimental: (§2) Binding potency affinity to human CD137 expressing cells was also determined for selected scFvs. 50,000 CD137 expressing Jurkat cells (or as reference cell line Jurkat NFAT) were distributed to round bottom non-tissue culture treated 96 well plates. Cells were washed twice with 100 μl PBS by centrifugation at 400×g for 5 min. […] After 1 h incubation at 4° C. on a nutating mixer, cells were washed 3 times with 100 μl staining buffer and centrifugation steps of 5 min at 400×g. […] Plates were incubated 1 h at 4° C. on a nutating mixer, then washed 3 times with 100 μl of staining buffer and resuspended in a final volume of 50 μl of staining buffer. Finally, APC signal of 20,000 events per well was analyzed by flow cytometry using a Novocyte flow cytometer system (ACEA Bioscience).

[13] = biological target: T5, human Fc-tagged CD40 (AcroBiosystems, cat. CDO-H5253) (human, UniProt P25942 21-193); assay: SPR T200, Fc-tagged CD40 captured, scFv analyte
T5 construct: also called human CD40
T5 sequence (P25942 21-193 limits assumed): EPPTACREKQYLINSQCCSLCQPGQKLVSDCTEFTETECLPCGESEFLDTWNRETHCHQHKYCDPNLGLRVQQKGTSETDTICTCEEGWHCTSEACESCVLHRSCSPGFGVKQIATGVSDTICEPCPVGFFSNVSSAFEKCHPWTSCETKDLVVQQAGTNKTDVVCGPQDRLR
Experimental: (§3) In addition to cross-reactivity to cynomolgus monkey CD137, selectivity of binding of the anti-human CD137 scFvs to human CD137 and not to other members of the TNFR superfamily, such as CD40 and OX40, is desired. Therefore, binding of selected scFvs to human CD40 and OX40 was tested. Binding of scFvs to human Fc-tagged CD40 (AcroBiosystems, cat. CDO-H5253) and human Fc-tagged OX40 (Acro-Biosystems, cat. OXO-H5255) was determined by SPR analysis on a T200 device (Biacore, GE Healthcare). In this experiment, Fc-tagged CD40 and OX40 were captured using the Human Antibody Capture kit from GE healthcare (cat. BR-1008-39). After each analyte injection cycle, the anti-human Fc-specific IgG was regenerated and new antigen was captured. The scFvs were injected as analyte using a high concentration of 180 nM of the analyte diluted in running buffer. Association and dissociation time were set to 300 s and 720 s, respectively. Obtained sensorgrams were fitted using the 1:1 binding model.

[14] = biological target: T6, human Fc-tagged OX40 (Acro-Biosystems, cat. OXO-H5255) (human, UniProt P43489 29-216, limits assumed); assay: SPR T200, Fc-tagged OX40 captured, scFv analyte
T6 construct: also called human OX40
T6 sequence (looked up): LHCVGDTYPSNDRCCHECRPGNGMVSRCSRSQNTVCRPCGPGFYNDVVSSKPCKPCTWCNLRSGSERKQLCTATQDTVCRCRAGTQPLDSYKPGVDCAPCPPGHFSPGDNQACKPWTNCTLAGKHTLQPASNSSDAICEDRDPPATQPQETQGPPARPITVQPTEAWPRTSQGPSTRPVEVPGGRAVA
Experimental: as §3

[15] = biological target: T2, Fc tagged human CD137 (R&D Systems, …); assay: SPR T200, Fc-tagged antigen captured, scFv analyte
Experimental: (§4) Affinity of the humanized scFvs to human CD137 was determined by SPR analysis on a T200 device (Biacore, GE Healthcare). […] After each analyte injection cycle, the anti-human Fc-specific IgG was regenerated and new antigen was captured. The scFvs were injected as analyte using a dose response multi-cycle kinetic assay over the captured CD137 with concentrations of the analyte ranging from 0.19 to 45 nM (three-fold dilutions steps) diluted in running buffer. Association and dissociation time were set to 300 s and 720 s, respectively. Obtained sensorgrams were fitted using the 1:1 binding model.

[16] = biological target: T3, cynomolgus monkey Fc-tagged CD137 (R&D …); assay: SPR T200, Fc-tagged antigen captured, scFv analyte
Experimental: as §4
Cross-reactivity to cynomolgus CD137 was measured with cynomolgus monkey Fc-tagged CD137 (R&D Systems, cat. 9324-4B-100) in a similar assay as used to measure binding to human CD137.

[17] = biological target: T4, mouse Fc-tagged mouse CD137 (R&D …); assay: SPR T200, Fc-tagged antigen captured, scFv analyte
[18] = biological target: T1, human CD137 expressed on Jurkat cells; assay: flow cytometry on CD137 expressing Jurkat cells, protein L-APC
Experimental: as §2

EC50 NFkB-luciferase, CHO-PDL1 cells [1]: 3.68 ng/mL
Top of curve fit, NFkB-luciferase, CHO-PDL1 cells [1]: 229
EC50 NFkB-luciferase, HCC827 without IFNy [2]: 5.62 ng/mL
Top of curve fit, NFkB-luciferase, HCC827 without IFNy [2]: 113
EC50 NFkB-luciferase, HCC827 with IFNy [3]: 4.83 ng/mL
Top of curve fit, NFkB-luciferase, HCC827 with IFNy [3]: 188
max. activation, HCC827 +IFNg [4]: 188%
max. activation, HCC827 -IFNg [4]: 113%
max. activation, NF-kB reporter gene, CHO-PD-L1 [4]: 229%
rel. IC50 (urelumab/test), HCC827 +IFNg [4]: 22.4 ratio
rel. IC50 (urelumab/test), HCC827 -IFNg [4]: 19.9 ratio
rel. IC50 (urelumab/test), NF-kB reporter gene, CHO-PD-L1 [4]: 23.5 ratio
fold improvement of affinity against PRO885 [5]: > 200 fold
Kd [6]: 0.067 nM
koff [6]: 0.0002 s⁻¹
kon [6]: 3.1e+06 M⁻¹ s⁻¹
Kd [7]: ≤ 0.015 nM
koff [7]: < 1e-05 s⁻¹
kon [7]: 680000 M⁻¹ s⁻¹
Kd [8]: 0.59 nM
koff [8]: 0.00033 s⁻¹
kon [8]: 560000 M⁻¹ s⁻¹
Kd [9]: 11 nM
koff [9]: 0.0022 s⁻¹
kon [9]: 200000 M⁻¹ s⁻¹
B1: PRO1124 (38-02-A04 sc06 Full scDb-i/33_03_G02 scDb-o) (bispecific antibody)
chain: DIQMTQSPSSLSASVGDRVTITCQASQSINDYLAWYQQKPGKAPKLLIYKASTLASGVPSRFSGSGSGTDFTLTISSLQPEDFATYYCQQGYIITDIDNVFGTGTKVTVLGGGGGSQVQLQESGPGLVKPSETLSLTCKASGFSFSNSYWICWVRQPPGKGLEWIGCTFVGSSDSTYYANWAKGRVTISKDSSKNQVSLKLSSVTAADTAVYFCARHPSDAVYGYANNLWGQGTLVTVSSGGGGSGGGGSGGGGSGGGGSLQMTQSPSSLSASVGDRVTITCQASQSINNVLAWYQQKPGKPPKLLIYRASTLASGVPSRFSGSGSGTDFTLTISSLQPEDFATYYCQSSYGNYGDFGTGTKVTVLGGGGGSQVQLQESGPGLVKPSETLSLTCKVSGFSFSSGYDMCWIRQPPGKGLEWIGCVVAGSVDITYYASWAKGRVTISVDSSKNQFSLKLSSVTAADTAVYYCARKDAYSDAFNLWGQGTLVTVSS
notes: scDb; also called PR01124

EC50 of IL-2 secretion, SEA stimulated PBMC, 96 h [10]: 40.9 ng/mL
Kd [6]: ≤ 0.0017 nM
koff [6]: < 1e-05 s⁻¹
kon [6]: 5.9e+06 M⁻¹ s⁻¹
Kd [11]: < 0.00167 nM
koff [11]: < 1e-05 s⁻¹
kon [11]: 6e+06 M⁻¹ s⁻¹
B2: PRO997 (37-20-B03 CDR, scFv) (scFv)
scFv: DIQMTQSPSSLSASVGDRVTITCQASQSIGTYLAWYQQKPGKAPKLLIYRAFILASGVPSRFSGSGSGTDFTLTISSLQPEDFATYYCQSNFYSDSTTIGPNAFGTGTKVTVLGGGGGSGGGGSGGGGSGGGGSQVQLQESGPGLVKPSETLSLTCKVSGFSFNSDYWIYWIRQPPGKGLEWIGSIYGGSSGNTQYASWAQGRVTISVDSSKNQFSLKLSSVTAADTAVYYCARGYVDYGGATDLWGQGTLVTVSS
notes: also called anti-PDL1 scFv PRO997

Maximum binding (relative to urelumab) [12]: 10%
rel. EC50 (EC50, urelumab/EC50, scFv) [12]: 0.057 ratio
binding result [13]: no binding (tested: 180 nM)
binding result [14]: no binding (tested: 180 nM)
Kd [15]: 1.47 nM
koff [15]: 0.00103 s⁻¹
kon [15]: 701000 M⁻¹ s⁻¹
Kd [16]: 1.47 nM
koff [16]: 0.00102 s⁻¹
kon [16]: 695000 M⁻¹ s⁻¹
binding result [17]: no binding
EC50 [18]: 1100 ng/mL
B3: PRO1352 (38-02-A04 sc13, CDR graft with interdomain disulfide, VH3, scFv) (scFv)
scFv: DIQMTQSPSSLSASVGDRVTITCQASQSINNVLAWYQQKPGKAPKLLIYRASTLASGVPSRFSGSGSGTDFTLTISSLQPEDFATYYCQSSYGNYGDFGCGTKVTVLGGGGGSGGGGSGGGGSGGGGSEVQLVESGGGLVQPGGSLRLSCAASGFSFSNSYWICWVRQAPGKCLEWIGCTFVGSSDSTYYANWAKGRFTISRDNSKNTVYLQMNSLRAEDTAVYYCARHPSDAVYGYANNLWGQGTLVTVSS
notes: VL-linker-VH; carries VH G51C and VL T141C (AHo numbering); also called the scFv based on 38-02-A04 clone
